These results are taken from US20180325979A1 (UNIVERSITY OF SOUTHAMPTON, published 2018).

The target in this experiment is T1, HLA-Cw*0102 on the HLA-Cw*0102-positive cell line L721.174.
T1 construct: whole, on cells
In words: MHC class I stabilisation on L721.174 cells, flow cytometry.

B1: peptide IVDLMCHATF (SEQ ID NO: 1) (peptide)
peptide: IVDLMCHATF
notes: also called Dengue virus peptide
Take B1: the binding result is listed as “binds”.

B2: peptide LNPSVAATL (SEQ ID NO: 5) (peptide)
peptide: LNPSVAATL
Turning to B2, the binding result is “binds”.
